According to patent publication US20180142030A1:

Tests used:
Experiment in all cases: method not stated for Table 5; Fc variant against Fcγ receptor
[1] = target: FcγRIIb (human) (UniProt P31994)
[2] = target: FcγRIIa-H131 (human) (UniProt P12318)
[3] = target: FcγRIIa-R131 (human) (UniProt P12318)
FcγRIIa-R131 (human), sequence (P12318 34-218 H167R limits assumed): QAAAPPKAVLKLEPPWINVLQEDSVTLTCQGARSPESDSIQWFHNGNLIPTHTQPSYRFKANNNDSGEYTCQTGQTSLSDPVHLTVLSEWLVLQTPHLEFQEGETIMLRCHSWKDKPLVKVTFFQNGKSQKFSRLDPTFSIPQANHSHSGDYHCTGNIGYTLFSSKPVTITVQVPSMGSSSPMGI

FcγRIIb (human), sequence (P31994 43-217 limits assumed): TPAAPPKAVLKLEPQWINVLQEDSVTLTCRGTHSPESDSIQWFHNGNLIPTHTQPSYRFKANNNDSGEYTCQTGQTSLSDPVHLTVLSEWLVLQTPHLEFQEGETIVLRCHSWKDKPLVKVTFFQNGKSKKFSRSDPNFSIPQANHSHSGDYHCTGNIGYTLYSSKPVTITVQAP
FcγRIIa-H131 (human), sequence (P12318 34-218 limits assumed): as the sequence (P12318 34-218 H167R limits assumed) above, with R134H counted along it

Substance “IgG1f Fc sequence variant (Table 5) (antibody)” has a Kd [1] of 3900 nM, a Kd [2] of 530 nM and a Kd [3] of 850 nM.
With “P238D Fc sequence variant (Table 5) (antibody)” the Kd [1] was 950 nM.
For “SE Fc sequence variant (Table 5) (antibody)”, the Kd [1] was 98 nM, the Kd [2] was 520 nM and the Kd [3] was 22 nM.
For “SELF Fc sequence variant (Table 5) (antibody)”, the Kd [3] was 2 nM.
